The nanobody polyreactivity screen of Harvey et al. (2022)

Assay: yeast display, Sf9 membrane polyspecificity reagent, FACS + sequencing; frameworks hold sequencing errors
Method in brief: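 Using colony PCR, genes from sorted yeast display clones were amplified, then sequenced on MiSeq at 2 × 250 and filtered by CDR length. The clones had been stained with 10% biotinylated, detergent-solubilized Sf9 membrane reagent for 1 hour at 4 °C and sorted by FACS into low and high (top ~1%) gates on anti-HA and streptavidin fluorescence. Polyreactivity labels come from the gate of origin.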

Row | Sequence | polyreactivity (PSR sort gate)
1 | QVQLVESGGGLVQAGGSLRLSCAASGFTFYDNAMGWYRQAPGKERELVAAITSNGVNTHYADSVKGRFTISRDNAKNTVYLQMNSLKPEDTAVYYCAADRDPEVTYQKYEYWGQGTQVTVSS | low polyreactivity
2 | QVQLVESGGGLVQAGGSLRLSCAASGFTFYDYAMGWYRQAPGKERELVAAISSGTSTYYADSVKGRFTISRDNAKNTVYLQMNSLKPEDTAVYYCAAAGNRPWSITPVRKRYGYNYWGQGTQVTVSS | high polyreactivity
3 | QVQLVESGGGLVQAGGSLRLSCAASGFTFYDYAMGWYRQAPGKERELVAVITRRGGSTYYADSVKRRFTISRDNAKKTVDLQMNSLKPEDTAVYDCAADWRGWSFVRGDDYWGHGTQVTVSS | high polyreactivity
4 | QVQLVESGGGLVQAGGSLRLSCAASGFTFYDYSMGWYRQAPGTERELVAASSDSGGITYYADSVKGRFTISRDNAKNTVYLQMNRLKPEDTAVYYCAADFATPGPEYDYWGQGTQVTVSS | low polyreactivity
5 | QVQLVESGGGLVQAGGSLRLSCAASGFTFYFYAMGWYRQAPGKERELVAAISRGGSTTYADSVKGRFTISRDNAKNTVYLQMNSLIPEDTAVSYCKADIYTWFQIGGYQYDYWGQGTQVTVSS | low polyreactivity
6 | QVQLVESGGGLVQAGGSLRLSCAASGFTFYGNAMGWYSQAPGKERELVAAISSGGSTNYADSVKGRFTISRDNAQNTVSLQMNSLKPEDTAVYYCAASSPRQVSFPYASIGFDYWGQGTQVTVSS | low polyreactivity
7 | QVQLVESGGGLVQAGGSLRLSCAASGFTFYGYAMAWYRQAPGTERELVAAITRRGGNTYYADSVKGRFTISRDNAKNTVYLQMNSLKPEDTAVYYCNAVLRYGHGPYQKGDYWGQGSQVTVSS | high polyreactivity
8 | QVQLVESGGGLVQAGGSLRLSCAASGFTFYGYAMGWYRQAPGKERELVAAITSGGITNYADSVKGRFTISRDNAKNTVYLQMNSLKPEDTAVYYCNVKRRVSGYYGYKYYYWGQGTQVTVSS | high polyreactivity
9 | QVQLVESGGGLVQAGGSLRLSCAASGFTFYGYAMVWYRQAPGKERELLAAITFRGDRTYYADSVKGRFTISRDIAKNTVYLQMNSLKPEDTAVYYCAAERPSGWYSYLSLYIVRRGYWGQGTQVTVSS | low polyreactivity
10 | QVQLVESGGGLVQAGGSLRLSCAASGFTFYHNALGWYRQAPGKERELVATITARGGRTYYADSVKGRFTISRDNAKNTVYLQMNSLKPEDTAVYYCNVKASRGYTYEYDYWGQGTQVTVSS | high polyreactivity
11 | QVQLVESGGGLVQAGGSLRLSCAASGFTFYHYAMGWYRPAPGKERELVAAISKSGGRTYYADSVKGRFTISRDNAMYTVYLQMNSLKPEDTAVYYFNAAYRTTSYENDYWGQGTQVTVSS | low polyreactivity
12 | QVQLVESGGGLVQAGGSLRLSCAASGFTFYHYAMGWYRQAPGKEREFVAAISASGGSTYYADSVKGRFTISRDNAKNTVYLQMNSLKPEDTAVYYCNARYYYFSVRYKYDFNYWGQVTQVTVSS | high polyreactivity
13 | QVQLVESGGGLVQAGGSLRLSCAASGFTFYHYAMGWYRQAPGKERELGAAISRSGGSTYYADSVKGRFTISRDNAKNTVYLQMNSLKPEDTAVYYCAKVLRAKNSFDYWGQGTQVTVSS | high polyreactivity
14 | QVQLVESGGGLVQAGGSLRLSCAASGFTFYIYAMGWYRQAPGKERELVAAITGSGGRTYYADSVKGRFTISRDTAKNTVYLQMNSLKPEDTAVYYCAADKYRRGLAGAVARVNYWGQGTQVTVSS | high polyreactivity
15 | QVQLVESGGGLVQAGGSLRLSCAASGFTFYIYAMGWYRQAPGKERELVAGIDYSGGSTYYADSVKGRFTISRDNAKNTVYLQMNSLKPEDTAVYYCARYGPYQSSYHYDYWGQGTQVTVSS | high polyreactivity
16 | QVQLVESGGGLVQAGGSLRLSCAASGFTFYIYAMGWYRQAPGKERELVARISSGGRTYYADSVKGRFTISRDNAKNTVYLQMNRLKPEDTAVYDCHFWYGSWGQGTQVTVSS | low polyreactivity
17 | QVQLVESGGGLVQAGGSLRLSCAASGFTFYIYAMGWYRQAPGKERELVARISSGGRTYYADSVKGRFTISRDNAKNTVYLQMNSLKPEDTAVFDCHFWYGSWGQGTQVTVSS | low polyreactivity
18 | QVQLVESGGGLVQAGGSLRLSCAASGFTFYKNAMGWYRQAPGKERELVAAITSSGGSTYYADSVKGRFTISRDNAKNTVYLQMNSLKPEDTAVYYCAARASRPRFGYWGQGTQVTVSS | high polyreactivity
19 | QVQLVESGGGLVQAGGSLRLSCAASGFTFYKNTMGWYRQAPGKERELVAAISSSGSSTYYADSVKGRFTISRDNAKNTVYLQMNSLKPEDTAVYYCAAVYRSWTSYNGRNYWGQGTQVTVSS | high polyreactivity
20 | QVQLVESGGGLVQAGGSLRLSCAASGFTFYKYAMGWYRQAPGKERELVAAINWSGGSTYYADSVKGRFTISRDNAKNTVYLQMNSLKPEDTAVYYCAAERGTTYAYDYWGQGTQVTVSS | high polyreactivity
21 | QVQLVESGGGLVQAGGSLRLSCAASGFTFYKYAMGWYRQAPGKERELVATISWSGARTYYADSVKGRFTISRDNAKNTVYLQMNSLKPEDTAVYYCNARRAYRWKPYTGSAGMDYWGQGTQVTVSS | high polyreactivity
22 | QVQLVESGGGLVQAGGSLRLSCAASGFTFYKYVMGWYRQAPGKERELVAAITQGGGSTYYADSVKGRFTISRDNAKNTVYLQMNSLKPEDTAVYYCNARNGYGIGYWGQGTQVTVSS | high polyreactivity

Row | Sequence | polyreactivity (PSR sort gate)
23 | QVQLVESGGGLVQAGGSLRLSCAASGFTFYLYAMGWYRQAPGKERELVAAINSGSSTYYADSVKGRFTISRDNAKNTVYLQMNSLKPEDTAVYYCATDTDRTMDYWGQGTQVTVSS | low polyreactivity
24 | QVQLVESGGGLVQAGGSLRLSCAASGFTFYLYAMGWYRQAPGKERELVAAINSGSSTYYADSVKGRFTISRDNAKNTVYLQMNSLNPEDTAVYYCATDTDRTMDYWGQGTQVTVSS | low polyreactivity
25 | QVQLVESGGGLVQAGGSLRLSCAASGFTFYLYAMGWYRQAPGKERELVAAITGRGTRTYYADSVKGRFTISRDNAKNTVYLQMNSLKPEDTAVYYCATGGANVDGDAYDYWGQGTQVTVSS | high polyreactivity
26 | QVQLVESGGGLVQAGGSLRLSCAASGFTFYLYAMGWYRQAPGKERELVAASTWSGGRTYYADSVKGRFTISRDNAKNTVYLQMNSLKPEDTADYYCAVDGFRGRSHGANDFWGQGTQVTVSS | high polyreactivity
27 | QVQLVESGGGLVQAGGSLRLSCAASGFTFYLYTMGWYLQAPGKERELVATITSDGGTNYADSVKGRFTISRDNAKNTVYLQMNSLKPEDTAVYYCNAASRRGSRKQAKYDYWGQGTQVTVSS | low polyreactivity
28 | QVQLVESGGGLVQAGGSLRLSCAASGFTFYPYAMGWYRQAPGKERELVARITWSGGSTSYADSVKGRFTISRDNAKNTVYLQMNSLKPEDTAVYYCSKAYHHSEFDYWGLGTQVTVSS | high polyreactivity
29 | QVQLVESGGGLVQAGGSLRLSCAASGFTFYQYAMGSYRQAPGKESEFVATISSGGSTYYADSVKGRFTISRDNAKNTFYLQMNSLIPEDTAVYYCAKVDFIVGYYYWGQGTQVTVSS | low polyreactivity
30 | QVQLVESGGGLVQAGGSLRLSCAASGFTFYRNAMGWYRPAPGKERELVAAISGRGGGTYYADSVKGRFTISRDNAKNTVYLQMNSLKPEDTAVYYCNARLSWSAFGYWGQGTQVTVSS | high polyreactivity
31 | QVQLVESGGGLVQAGGSLRLSCAASGFTFYRNAMGWYRQAPGKERELVAAITRAGSTYYADSVKGRFTISRDNAKNTVYLQMNSLKPEDTAVYYCFDMSNRYAVRYDYWGQGTQVSVSS | high polyreactivity
32 | QVQLVESGGGLVQAGGSLRLSCAASGFTFYRNARGWYRQAPGKERELVAAISISGGSTYYADSVKGRFTISRDNAKNTVYLQMNSLKPEDTAVYYCAAYYYRDRYSRVKVTYWGQGTQVTVSS | high polyreactivity
33 | QVQLVESGGGLVQAGGSLRLSCAASGFTFYRNVMGWYRQAPGKERELVAAISSRGGSTYYADSVKGRFTISRDNAKNTVYLQMNSLKPEDTAVYYCNKARYTVISYDEYDYWGQGTQVTVSS | high polyreactivity
34 | QVQLVESGGGLVQAGGSLRLSCAASGFTFYRYAMGCYRQAPGKERELVAAITSSGGNTYYADSVKGRFTISRDNGKNTVYLQMNSLKPEDTAVYYCAKYTRIRFEYEYWGLGTQVTVSS | high polyreactivity
35 | QVQLVESGGGLVQAGGSLRLSCAASGFTFYRYAMGWYRHAPGKERELVAAITRSGSRTYYADSVKGRFTISRDNAKNTVYLQMNSLKPEDTAVYYFNTDGGDHPTARYGYWGQVTQVTVSS | high polyreactivity
36 | QVQLVESGGGLVQAGGSLRLSCAASGFTFYRYAMGWYRPAPGKERELVAAISKSGGTTFYADSVKGRFTISRDNAKNTVYLQMNSLKPEDTEVYYCAVDVPYVQSYIPDPPNVYYWGQGTQVTVSS | high polyreactivity
37 | QVQLVESGGGLVQAGGSLRLSCAASGFTFYRYAMGWYRQAPGKERELVAAISTSGGSTYYADSVKGRFTISRDNAKNTVYLQMNSLKPEDTAVYYCAASYYGKRDRAGPYYSFDYWGQGTQVTVSS | high polyreactivity
38 | QVQLVESGGGLVQAGGSLRLSCAASGFTFYRYAMGWYRQAPGKERELVAAITWSGGATYYADSVKGRFTISRDNAKNTVYLQMNSLKPEDTAVYYCAADIYDGGFDYWGQGTQVTVSS | low polyreactivity
39 | QVQLVESGGGLVQAGGSLRLSCAASGFTFYRYAMGWYRQAPGQEREVVAAIRKSGGSTYYADSVKGRFTISRDNAKTTVYLQMNSLKPEDTAVYYCAKRYATDGFGYWGQGTQVTVSS | high polyreactivity
40 | QVQLVESGGGLVQAGGSLRLSCAASGFTFYRYDMGWYRQAPGKERELVAAITNNGGKTYYADSVKGRITISRDNAKYSDYLQMNSLKPVDTAVYYSAAEFYWGDLSYWGQGTQVTVSS | high polyreactivity
41 | QVQLVESGGGLVQAGGSLRLSCAASGFTFYRYTMGWYRQAPGKERELVAAISRGGRTYYADSVKGRFTISRDNAKNTVYLQMNSLKPEDTAVYYCNARYPSADDWGQGTQVTVSS | high polyreactivity
42 | QVQLVESGGGLVQAGGSLRLSCAASGFTFYRYTMGWYRQAPGKERELVAAISRRGGRTYYADSVKGRFTISRDYAKNSVYLQMNSLKPEDTAVYYCAADSAAYVFGEAYDYWGKGTQVTVSS | high polyreactivity
43 | QVQLVESGGGLVQAGGSLRLSCAASGFTFYRYTMGWYRQAPGKERELVASITRRGGSTYYADSVKGRFTISRDNAKNTVYLQMNSLKPEDTAVYYCNAATPVWQSGTYEYWGQGTQVTVSS | high polyreactivity
